In PMC6823292, “Molecular structure of human synaptonemal complex protein SYCE1” (Chromosoma, 2019):

Molecular target: the molecule itself
Test: SEC-MALS; 6–20 mg/ml loaded on Superdex 200 Increase 10/300 GL in 20 mM Tris pH 8.0, 150 mM KCl, 2 mM DTT

Protein | stoichiometry N
human SYCE1 full length (amino acids 1–351) (natural protein, UniProt Q8N0S2 1-351, looked up, synaptonemal complex central element protein 1 (SYCE1), human, full length, amino acids 1–351; also called full-length SYCE1; source: E. coli BL21(DE3), purified (amylose, anion exchange, TEV cleavage, anion exchange, SEC); not shown: His, N-terminal, cleaved; MBP, N-terminal, cleaved) MAGRSLTSKAEPTAGAVDRAEKAGGQDTSSQKIEDLMEMVQKLQKVGSLEPRVEVLINRINEVQQAKKKANKDLGEARTICEALQKELDSLHGEKVHLKEILSKKQETLRILRLHCQEKESEAHRKHTMLQECKERISALNLQIEEEKNKQRQLRLAFEEQLEDLMGQHKDLWDFHMPERLAKEICALDSSKEQLLKEEKLVKATLEDVKHQLCSLCGAEGPSTLDEGLFLRSQEAAATVQLFQEEHRKAEELLAAAAQRHQQLQQKCQQQQQKRQRLKEELEKHGMQVPAQAQSTQEEEAGPGDVASPKPLKGERPGAAHQAGPDVLIGQEDTLHPDLSPRGFQEIKELF | 2
human SYCE1 core (amino acids 25–179) (domain or fragment, UniProt Q8N0S2 25-179, looked up, also called SYCE1 structural core; source: E. coli BL21(DE3), purified (amylose, anion exchange, TEV cleavage, anion exchange, SEC); not shown: His, N-terminal, cleaved; MBP, N-terminal, cleaved) GQDTSSQKIEDLMEMVQKLQKVGSLEPRVEVLINRINEVQQAKKKANKDLGEARTICEALQKELDSLHGEKVHLKEILSKKQETLRILRLHCQEKESEAHRKHTMLQECKERISALNLQIEEEKNKQRQLRLAFEEQLEDLMGQHKDLWDFHMPE | 2
SYCE1-MBP (C-terminal MBP fusion of SYCE1 core, amino acids 25–179) (domain or fragment, human, UniProt Q8N0S2 25-179, looked up, source: E. coli BL21(DE3), purified; not shown: MBP, C-terminal, kept) GQDTSSQKIEDLMEMVQKLQKVGSLEPRVEVLINRINEVQQAKKKANKDLGEARTICEALQKELDSLHGEKVHLKEILSKKQETLRILRLHCQEKESEAHRKHTMLQECKERISALNLQIEEEKNKQRQLRLAFEEQLEDLMGQHKDLWDFHMPE | 2
MBP-SYCE1-MBP (N- and C-terminal MBP double fusion of SYCE1 core, amino acids 25–179) (domain or fragment, human, UniProt Q8N0S2 25-179, looked up, source: E. coli BL21(DE3), purified; not shown: MBP, N-terminal, kept; MBP, C-terminal, kept) GQDTSSQKIEDLMEMVQKLQKVGSLEPRVEVLINRINEVQQAKKKANKDLGEARTICEALQKELDSLHGEKVHLKEILSKKQETLRILRLHCQEKESEAHRKHTMLQECKERISALNLQIEEEKNKQRQLRLAFEEQLEDLMGQHKDLWDFHMPE | 2
MBP-SYCE1 (N-terminal MBP fusion of SYCE1 core, amino acids 25–179) (domain or fragment, human, UniProt Q8N0S2 25-179, looked up, pMAT11 gives a His-MBP fusion with a TEV site; source: E. coli BL21(DE3), purified; not shown: MBP, N-terminal, kept) GQDTSSQKIEDLMEMVQKLQKVGSLEPRVEVLINRINEVQQAKKKANKDLGEARTICEALQKELDSLHGEKVHLKEILSKKQETLRILRLHCQEKESEAHRKHTMLQECKERISALNLQIEEEKNKQRQLRLAFEEQLEDLMGQHKDLWDFHMPE | 2
